The target of this experiment is TRAIL-R.

The text below walks through data of paper PMC4745738.

For “TNF-related apoptosis-inducing ligand (TRAIL) (from UniProt P50591 1-281)”, the inhibition of specific lysis of Nalm6 cells by pDC-activated NK cells (5:1 E:T ratio) with a blocking anti-TRAIL antibody was 50% and the inhibition of specific lysis of REH cells by pDC-activated NK cells (5:1 E:T ratio) with a blocking anti-TRAIL antibody is 66%.
